Assay results published in patent US20140271457A1 (AbbVie / Abbott, published 2014).
Positions count from the first letter of the chain named.

B1: DVD3091 (bispecific antibody, human IgG1, kappa)
heavy: not shown
light: DVVMTQSPLSLPVTLGQPASISCRSSQSLVHSHGNTYLHWYQQRPGQSPRLLIYTVSNRFSGVPDRFSGSGSGTDFTLKISRVEAEDVGVYYCSQSTHVPYTFGGGTKVEIKRTVAAPSVFIFPPDIQMTQSPSSLSASVGDRVTITCRASQLVSSAVAWYQQKPGKAPKLLIYWASARHTGVPSRFSGSGSGTDFTLTISSLQPEDFATYYCQQHYKTPFTFGQGTKLEIKRTVAAPSVFIFPPSDEQLKSGTASVVCLLNNFYPREAKVQWKVDNALQSGNSQESVTEQDSKDSTYSLSSTLTLSKADYEKHKVYACEVTHQGLSSPVTKSFNRGEC
B2: DVD3101 (bispecific antibody, human IgG1, kappa)
heavy: not shown
light: B1 light with R149K, A178T, R179L, K218R
B3: DVD3111 (bispecific antibody, human IgG1, kappa)
heavy: not shown
light: DVVMTQSPLSLPVTLGQPASISCRSSQSLVHSHGNTYLHWYQQRPGQSPRLLIYTVSNRFSGVPDRFSGSGSGTDFTLKISRVEAEDVGVYYCSQSTHVPYTFGGGTKVEIKRTVAAPSVFIFPPDIQMTQSPSSLSASVGDRVTITCRASQDISQYLNWYQQKPGKAPKLLIYYTSRLQSGVPSRFSGSGSGTDFTLTISSLQPEDFATYFCQQGNTWPPTFGQGTKLEIKRTVAAPSVFIFPPSDEQLKSGTASVVCLLNNFYPREAKVQWKVDNALQSGNSQESVTEQDSKDSTYSLSSTLTLSKADYEKHKVYACEVTHQGLSSPVTKSFNRGEC
B4: DVD3107 (bispecific antibody)
heavy: not shown
light: DIQMTQSPSSLSASVGDRVTITCRASQDISQYLNWYQQKPGKAPKLLIYYTSRLQSGVPSRFSGSGSGTDFTLTISSLQPEDFATYFCQQGNTWPPTFGQGTKLEIKRTVAAPDVVMTQSPLSLPVTLGQPASISCRSSQSLVHSHGNTYLHWYQQRPGQSPRLLIYTVSNRFSGVPDRFSGSGSGTDFTLKISRVEAEDVGVYYCSQSTHVPYTFGGGTKVEIKRTVAAPSVFIFPPSDEQLKSGTASVVCLLNNFYPREAKVQWKVDNALQSGNSQESVTEQDSKDSTYSLSSTLTLSKADYEKHKVYACEVTHQGLSSPVTKSFNRGEC
B5: DVD3097 (bispecific antibody)
heavy: not shown
light: DIQMTQSPSSLSASVGDRVTITCKASQLVSSAVAWYQQKPGKAPKLLIYWASTLHTGVPSRFSGSGSGTDFTLTISSLQPEDFATYYCQQHYRTPFTFGQGTKLEIKRTVAAPDVVMTQSPLSLPVTLGQPASISCRSSQSLVHSHGNTYLHWYQQRPGQSPRLLIYTVSNRFSGVPDRFSGSGSGTDFTLKISRVEAEDVGVYYCSQSTHVPYTFGGGTKVEIKRTVAAPSVFIFPPSDEQLKSGTASVVCLLNNFYPREAKVQWKVDNALQSGNSQESVTEQDSKDSTYSLSSTLTLSKADYEKHKVYACEVTHQGLSSPVTKSFNRGEC
B6: DVD3088 (bispecific antibody, human IgG1, kappa)
heavy: not shown
light: DVVMTQSPLSLPVTLGQPASISCRSSQSLVHSHGNTYLHWYQQRPGQSPRLLIYTVSNRFSGVPDRFSGSGSGTDFTLKISRVEAEDVGVYYCSQSTHVPYTFGGGTKVEIKRGGSGGGGSGDIQMTQSPSSLSASVGDRVTITCRASQLVSSAVAWYQQKPGKAPKLLIYWASARHTGVPSRFSGSGSGTDFTLTISSLQPEDFATYYCQQHYKTPFTFGQGTKLEIKRTVAAPSVFIFPPSDEQLKSGTASVVCLLNNFYPREAKVQWKVDNALQSGNSQESVTEQDSKDSTYSLSSTLTLSKADYEKHKVYACEVTHQGLSSPVTKSFNRGEC
B7: DVD3098 (bispecific antibody, human IgG1, kappa)
heavy: not shown
light: B6 light with R146K, A175T, R176L, K215R
B8: DVD3089 (bispecific antibody, human IgG1, kappa)
heavy: not shown
light: DVVMTQSPLSLPVTLGQPASISCRSSQSLVHSHGNTYLHWYQQRPGQSPRLLIYTVSNRFSGVPDRFSGSGSGTDFTLKISRVEAEDVGVYYCSQSTHVPYTFGGGTKVEIKRTVAAPDIQMTQSPSSLSASVGDRVTITCRASQLVSSAVAWYQQKPGKAPKLLIYWASARHTGVPSRFSGSGSGTDFTLTISSLQPEDFATYYCQQHYKTPFTFGQGTKLEIKRTVAAPSVFIFPPSDEQLKSGTASVVCLLNNFYPREAKVQWKVDNALQSGNSQESVTEQDSKDSTYSLSSTLTLSKADYEKHKVYACEVTHQGLSSPVTKSFNRGEC
B9: DVD3099 (bispecific antibody, human IgG1, kappa)
heavy: not shown
light: B8 light with R142K, A171T, R172L, K211R
B10: DVD3092 (bispecific antibody, human IgG1, kappa)
heavy: not shown
light: B8 light
B11: DVD3102 (bispecific antibody, human IgG1, kappa)
heavy: not shown
light: B8 light with R142K, A171T, R172L, K211R
B12: DVD3106 (bispecific antibody)
heavy: not shown
light: DIQMTQSPSSLSASVGDRVTITCRASQDISQYLNWYQQKPGKAPKLLIYYTSRLQSGVPSRFSGSGSGTDFTLTISSLQPEDFATYFCQQGNTWPPTFGQGTKLEIKRTVAAPSVFIFPPDVVMTQSPLSLPVTLGQPASISCRSSQSLVHSHGNTYLHWYQQRPGQSPRLLIYTVSNRFSGVPDRFSGSGSGTDFTLKISRVEAEDVGVYYCSQSTHVPYTFGGGTKVEIKRTVAAPSVFIFPPSDEQLKSGTASVVCLLNNFYPREAKVQWKVDNALQSGNSQESVTEQDSKDSTYSLSSTLTLSKADYEKHKVYACEVTHQGLSSPVTKSFNRGEC
B13: DVD3116 (bispecific antibody)
heavy: not shown
light: B12 light with S30E, Q31N, W94Q
B14: DVD3103 (bispecific antibody, human IgG1, kappa)
heavy: not shown
light: DIQMTQSPSSLSASVGDRVTITCRASQDISQYLNWYQQKPGKAPKLLIYYTSRLQSGVPSRFSGSGSGTDFTLTISSLQPEDFATYFCQQGNTWPPTFGQGTKLEIKRGGSGGGGSGDIQMTQSPSSLSASVGDRVTITCRASQLVSSAVAWYQQKPGKAPKLLIYWASARHTGVPSRFSGSGSGTDFTLTISSLQPEDFATYYCQQHYKTPFTFGQGTKLEIKRTVAAPSVFIFPPSDEQLKSGTASVVCLLNNFYPREAKVQWKVDNALQSGNSQESVTEQDSKDSTYSLSSTLTLSKADYEKHKVYACEVTHQGLSSPVTKSFNRGEC
B15: DVD3104 (bispecific antibody, human IgG1, kappa)
heavy: not shown
light: DIQMTQSPSSLSASVGDRVTITCRASQDISQYLNWYQQKPGKAPKLLIYYTSRLQSGVPSRFSGSGSGTDFTLTISSLQPEDFATYFCQQGNTWPPTFGQGTKLEIKRTVAAPDIQMTQSPSSLSASVGDRVTITCRASQLVSSAVAWYQQKPGKAPKLLIYWASARHTGVPSRFSGSGSGTDFTLTISSLQPEDFATYYCQQHYKTPFTFGQGTKLEIKRTVAAPSVFIFPPSDEQLKSGTASVVCLLNNFYPREAKVQWKVDNALQSGNSQESVTEQDSKDSTYSLSSTLTLSKADYEKHKVYACEVTHQGLSSPVTKSFNRGEC
B16: DVD3109 (bispecific antibody, human IgG1, kappa)
heavy: not shown
light: DVVMTQSPLSLPVTLGQPASISCRSSQSLVHSHGNTYLHWYQQRPGQSPRLLIYTVSNRFSGVPDRFSGSGSGTDFTLKISRVEAEDVGVYYCSQSTHVPYTFGGGTKVEIKRTVAAPDIQMTQSPSSLSASVGDRVTITCRASQDISQYLNWYQQKPGKAPKLLIYYTSRLQSGVPSRFSGSGSGTDFTLTISSLQPEDFATYFCQQGNTWPPTFGQGTKLEIKRTVAAPSVFIFPPSDEQLKSGTASVVCLLNNFYPREAKVQWKVDNALQSGNSQESVTEQDSKDSTYSLSSTLTLSKADYEKHKVYACEVTHQGLSSPVTKSFNRGEC
B17: DVD3112 (bispecific antibody, human IgG1, kappa)
heavy: not shown
light: B16 light

The binders below were run against Recombinant Human IL-13 (human, UniProt P35225 35-146, limits assumed) (assay: cell-based or functional assay).
Recombinant Human IL-13, sequence (P35225 35-146 limits assumed): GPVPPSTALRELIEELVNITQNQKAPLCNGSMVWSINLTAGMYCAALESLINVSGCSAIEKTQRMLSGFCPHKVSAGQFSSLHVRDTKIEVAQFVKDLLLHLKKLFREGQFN

Point of comparison: B10, “IL-13 Neutralization Assay IC50” value 60 pM. Against it:
- B1 — within 1.5-fold, 56 pM
- B2 — 1.6-fold lower, 37 pM
- B3 — 3.3-fold lower, 18 pM
- B4 — 2.1-fold lower, 29 pM
- B5 — within 1.5-fold, 72 pM
- B6 — 1.7-fold higher, 103 pM
- B7 — within 1.5-fold, 59 pM
- B8 — within 1.5-fold, 74 pM
- B9 — 4.3-fold lower, 14 pM
- B11 — 2.4-fold lower, 25 pM
- B12 — within 1.5-fold, 74 pM
- B13 — within 1.5-fold, 81 pM
- B14 — within 1.5-fold, 42 pM
- B15 — 18-fold higher, 1050 pM
- B16 — within 1.5-fold, 44 pM
- B17 — 3.5-fold lower, 17 pM
